Test results from patent US5472841.
pKd: −log10 of the molar value.

Target: T1, Human neutrophil elastase (Homo sapiens) (UniProt P08246)
T1 sequence: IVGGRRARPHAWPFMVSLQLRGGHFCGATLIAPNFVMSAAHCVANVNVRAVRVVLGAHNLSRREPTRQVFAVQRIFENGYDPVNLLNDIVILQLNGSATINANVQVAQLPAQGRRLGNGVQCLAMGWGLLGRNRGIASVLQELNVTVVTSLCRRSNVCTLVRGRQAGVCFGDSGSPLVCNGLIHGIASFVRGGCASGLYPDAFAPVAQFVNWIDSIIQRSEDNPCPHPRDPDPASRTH
Test: filter
Details: apparent Kd

CCCCTGCAGGTGATTTTGCTCAAGTNNNNNNNNNNNNNNNNNNNNNNNNNNNNNNNNNNNNNNNNAGTATCGCTAATCAGGCGGATC [random ssDNA pool]
pKd: 6.60
